{
  "source": "patent US20080021198",
  "target": "PP2A A-C hetero-dimer (bovine brain, unmethylated) (UniProt Q32PI5)",
  "sequence (Q32PI5 2-589, chain 1 of 2)": "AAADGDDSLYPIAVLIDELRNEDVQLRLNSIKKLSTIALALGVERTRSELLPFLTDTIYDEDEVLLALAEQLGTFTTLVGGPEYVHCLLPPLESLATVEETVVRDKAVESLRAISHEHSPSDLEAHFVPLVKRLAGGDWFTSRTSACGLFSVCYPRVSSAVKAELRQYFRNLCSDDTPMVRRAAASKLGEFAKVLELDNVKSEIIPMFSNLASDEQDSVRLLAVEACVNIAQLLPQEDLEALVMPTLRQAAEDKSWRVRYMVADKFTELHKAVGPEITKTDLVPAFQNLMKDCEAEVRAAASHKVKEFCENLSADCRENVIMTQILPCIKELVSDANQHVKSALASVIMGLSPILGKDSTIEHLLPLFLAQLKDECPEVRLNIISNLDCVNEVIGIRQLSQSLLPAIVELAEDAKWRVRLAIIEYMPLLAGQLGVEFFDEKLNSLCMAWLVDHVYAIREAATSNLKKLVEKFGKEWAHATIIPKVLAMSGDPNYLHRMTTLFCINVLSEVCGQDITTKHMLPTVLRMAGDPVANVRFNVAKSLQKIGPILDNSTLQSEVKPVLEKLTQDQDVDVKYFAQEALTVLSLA",
  "sequence (chain, as listed by the source, chain 2 of 2)": "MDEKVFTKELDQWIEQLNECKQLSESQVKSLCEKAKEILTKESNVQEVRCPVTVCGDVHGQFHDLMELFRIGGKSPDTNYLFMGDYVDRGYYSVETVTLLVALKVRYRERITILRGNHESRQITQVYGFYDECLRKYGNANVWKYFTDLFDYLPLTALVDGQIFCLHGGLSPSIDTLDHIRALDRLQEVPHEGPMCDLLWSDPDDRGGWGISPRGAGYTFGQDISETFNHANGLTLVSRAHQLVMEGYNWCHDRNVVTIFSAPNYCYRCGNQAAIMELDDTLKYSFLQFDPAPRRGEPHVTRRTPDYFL",
  "data": [
    {"substance": "PMTΔ19 (human PP2A methyl transferase with the N-terminal 19 residues truncated)", "values": [
      {"measurement": "enzyme activity (in vitro enzymatic assay, FIG. 7)", "result": "Truncation of the N-terminal 19 amino acids did not appear to have any effect on the enzyme activity"}
    ]}
  ]
}
